The target in test [1] is T1, Human P-cadherin on cells (human, UniProt P22223 108-829). The test is described as follows: cell-based or functional assay.
In test [2] the target is T1, Human P-cadherin on cells. Briefly: cell-based or functional assay. This is another data set of the same source.
In test [3] the target is T1, Human P-cadherin on cells. The test is described as follows: cell-based or functional assay. This is another data set of the same source.
Test [4] addresses T2, WBP319-hPro3.ECD.hFcHis (R&D) (human, UniProt P19022 160-724).
T2 construct: extracellular domain; Bought protein; the text calls it ECD.His, the code says hFcHis; also called human N-Cadherin.ECD.His; Human N-Cadherin; not shown: human Fc and His tag by the code hFcHis
T2 sequence (looked up): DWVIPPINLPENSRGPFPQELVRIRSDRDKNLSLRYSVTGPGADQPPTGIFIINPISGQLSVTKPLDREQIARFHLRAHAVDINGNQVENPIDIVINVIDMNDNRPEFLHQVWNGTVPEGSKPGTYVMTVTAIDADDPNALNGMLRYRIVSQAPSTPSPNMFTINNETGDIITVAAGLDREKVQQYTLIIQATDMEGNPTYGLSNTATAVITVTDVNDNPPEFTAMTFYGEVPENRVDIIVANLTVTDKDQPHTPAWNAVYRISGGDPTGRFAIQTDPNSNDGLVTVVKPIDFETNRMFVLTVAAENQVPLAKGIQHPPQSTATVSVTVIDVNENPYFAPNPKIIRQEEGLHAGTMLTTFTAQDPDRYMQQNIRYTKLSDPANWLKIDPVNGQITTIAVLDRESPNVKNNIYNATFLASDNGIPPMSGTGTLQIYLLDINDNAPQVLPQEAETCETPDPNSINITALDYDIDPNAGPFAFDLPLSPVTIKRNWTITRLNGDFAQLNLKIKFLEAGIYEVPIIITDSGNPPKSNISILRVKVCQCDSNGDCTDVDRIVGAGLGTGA
The test is described as follows: capture ELISA, antigen held by anti-His antibody. The protocol: The binding of the antibodies to human E-Cadherin.ECD.His (R&D-8505-NC-050, WBP319-hPro2.ECD.His (R&D)) and human N-Cadherin.ECD.His (R&D-1388-NC-050, WBP319-hPro3.ECD.hFcHis (R&D)) were tested by a captured protein binding ELISA. 96-well high protein binding ELISA plates (Nunc MaxiSorp, ThermoFisher, Cat #: 442404) were coated overnight at 4° C. with 1 μg/mL capture antibody (THETM His Tag mAb, GenScript, Cat #: A00186) in Carbonate-bicarbonate buffer (20 mM Na2CO3, 180 mM NaHCO3, pH=9.2). All wells were washed three time with 300 μL per well of PBS/0.5‰ Tween-20 (v/v) and all the following wash steps in the assay were performed the same. The wells were then blocked for one hour with 3% milk (Shanghai Dingguo-DH220)/1×PBS (Ca+/Mg+) (Gibco, #14040-117) and washed three times, followed by binding of 1 μg/mL antigens in 3% milk/1×PBS (Ca+/Mg+) for 1 hour at room temperature and three washes afterwards. […]
For the binding detection, 100 μL Tetramethylbenzidine (TMB) Substrate solution (Invitrogen, Cat #: 002023) was added to all wells for 10 minutes before stopping the reaction with 100 μL 2M HCl. The extent of the testing Abs binding to WBP319-hPro2.ECD.His (R&D)) and WBP319-hPro3.ECD.hFcHis (R&D) were determined by measuring the OD450 absorbance using the SpectraMax® M5e microplate reader. […]
(In an ELISA, binding on a coated surface is turned into a signal by an enzyme label.)

Test [5] has as its target T1, Human P-cadherin on cells. Briefly: cell-based or functional assay. The source holds these as a separate data set.
Test [6] concerns the target T1, Human P-cadherin on cells. Briefly: FACS on HCT-116 cells, antibody kept in human serum at 37 C, Day 4. As to the method:
(§1) The antibody stability in human serum was tested by FACS. Briefly, human serum was freshly isolated by centrifuging the fresh blood twice at 4000 rpm for 10 minutes. […] As a control, antibodies serum mix was frozen immediately without 37° C. incubation. For the FACS analysis, the samples from different time points were free-thawed simultaneously at 4° C. […] The cells were washed twice with 1% BSA/1×PBS (Ca+/Mg+). Alexa647 conjugated Goat anti-human IgG Fc (Jackson, #109-605-098) 1:500 diluted in 1% BSA/1×PBS (Ca+/Mg+) were added to the cells and incubated at 4° C. for 30 minutes. Cells were washed twice in the same buffer and the mean fluorescence (MFI) of stained cells was measured using a FACS Canto II cytometer (BD Biosciences) and analyzed by FlowJo. Wells containing no antibody or secondary antibody only were used to establish background fluorescence. Four-parameter non-linear regression analysis was used to obtain EC50 values for cell binding using GraphPad Prism6 software.

Test [7] addresses T1, Human P-cadherin on cells. Briefly: FACS on HCT-116 cells, antibody kept in human serum at 37 C, Day 7. The protocol:
as §1

The target in test [8] is T1, Human P-cadherin on cells. Briefly: FACS on HCT-116 cells, antibody kept in human serum at 37 C, Day 14. The protocol: as §1

T1 sequence (P22223 108-829): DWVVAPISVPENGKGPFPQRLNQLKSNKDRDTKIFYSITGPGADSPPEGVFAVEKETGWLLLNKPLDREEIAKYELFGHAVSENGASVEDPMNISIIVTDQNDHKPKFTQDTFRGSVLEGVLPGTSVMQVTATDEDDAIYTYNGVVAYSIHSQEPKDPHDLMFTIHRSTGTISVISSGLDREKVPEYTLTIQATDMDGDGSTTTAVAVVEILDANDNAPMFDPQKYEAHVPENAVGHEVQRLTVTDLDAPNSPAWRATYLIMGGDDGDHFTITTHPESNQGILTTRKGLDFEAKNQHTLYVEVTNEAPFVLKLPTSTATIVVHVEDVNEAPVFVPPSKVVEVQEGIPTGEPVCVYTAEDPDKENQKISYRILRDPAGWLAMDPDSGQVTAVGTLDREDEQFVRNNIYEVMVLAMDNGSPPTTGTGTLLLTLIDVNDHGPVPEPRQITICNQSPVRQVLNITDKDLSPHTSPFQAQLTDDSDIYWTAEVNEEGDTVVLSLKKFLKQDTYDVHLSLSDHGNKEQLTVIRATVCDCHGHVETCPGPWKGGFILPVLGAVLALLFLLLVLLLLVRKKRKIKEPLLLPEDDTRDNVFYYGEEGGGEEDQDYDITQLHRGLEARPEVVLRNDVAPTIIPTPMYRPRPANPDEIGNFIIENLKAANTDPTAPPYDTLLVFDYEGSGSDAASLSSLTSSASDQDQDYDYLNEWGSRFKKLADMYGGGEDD

B1: W3195-1.53.1-p1-uIgG1L (antibody)
heavy: not shown
light: SYELTQPPSVSVSPGQTAQITCSGDKLGDKFASWYQQKSGQSPVVVIYQDNKRPSGFPERFSGSNSGNTATLTISGTQAMDEADYYCQAWDSSIVVFGGGTKLTVLGQPKAAPSVTLFPPSSEELQANKATLVCLISDFYPGAVTVAWKADSSPVKAGVETTTPSKQSNNKYAASSYLSLTPEQWKSHRSYSCQVTHEGSTVEKTVAPTECS
notes: also called W3195-p1 antibody
As for B1, in test [1], the “cell aggregation assay on DU-145, EC50” value was found to be 0.39 nM. Moreover, the “cell aggregation assay on DU-145, Max Fold change” value in test [1] stood at 1.75 fold. For the same molecule, the “internalization, Fab-ZAP CTG assay on HCC-1954, IC50” value in test [2] was determined as 0.02 nM. For the same molecule, the “ADCC reporter gene assay, EC50” value in test [3] worked out at 0.052 nM. For the same molecule, in test [3], the “ADCC reporter gene assay, Max Fold Change” value was determined as 145 fold. In addition, the EC50 is more than 100 nM in test [4], 0.16 nM in test [6], 0.21 nM in test [7] and 0.2 nM in test [8]. The “internalization, HCS assay on HCC-1954, EC50” value in test [5] was found to be 0.029 nM.

Usually EC50 stands for the concentration needed to bring the measured effect to its halfway point. Higher therefore signals lower potency in that assay.

Values taken from US20240034786A1 (WUXI BIOLOGICS IRELAND, published 2024).
